Assay results: ChEMBL document CHEMBL4673265, “The food-grade antimicrobial xanthorrhizol targets the enoyl-ACP reductase (FabI) in Escherichia coli” (Bioorg Med Chem Lett, 2020)
Converted amounts (≈) assume the structure as drawn.

How the values were obtained:
[1] = Inhibition of Staphylococcus aureus FabI assessed as incorporation of [1-14C]acetate to L-[U-14C]leucine
Staphylococcus aureus = test: Antimicrobial activity against Staphylococcus aureus assessed as complete inhibition of growth after 24 hrs by broth microdilution method; format: functional
Escherichia coli [2] = test: Antimicrobial activity against Escherichia coli ATCC 35218; format: functional
[3] = test system: Mycobacterium tuberculosis; test: Antibacterial activity against Mycobacterium tuberculosis H37Rv ATCC 27294 incubated for 7 days by microplate alamar blue assay; format: functional; conditions: 168 h, time 7 day
Escherichia coli [4] = test: Antimicrobial activity against Escherichia coli W3110 imp4213 expressing pCA24N-fab/ Y156V mutant assessed as absence of growth; format: functional
Escherichia coli [5] = test: Antimicrobial activity against Escherichia coli W3110 imp4213 expressing pCA24N-fabI mutant assessed as absence of growth; format: functional
Escherichia coli [6] = test: Antibacterial activity against Escherichia coli BW25113 assessed as effect on growth rate per hour at 0.128 uM incubated for 24 hrs by microplate reader; format: functional
Escherichia coli [7] = test: Antimicrobial activity against Escherichia coli W3110 imp4213 expressing fabI G93V mutant assessed as absence of growth; format: functional
Escherichia coli [8] = test: Antimicrobial activity against Escherichia coli W3110 imp4213 expressing pCA24N-fab F203L mutant assessed as absence of growth; format: functional
Escherichia coli [9] = test: Antimicrobial activity against Escherichia coli W3110 imp4213 expressing pCA24N mutant assessed as absence of growth; format: functional
Escherichia coli [10] = test: Antimicrobial activity against Escherichia coli W3110 imp4213 assessed as absence of growth; format: functional
Escherichia coli [11] = test: Antimicrobial activity against Escherichia coli W3110 imp4213 expressing fabI392 mutant assessed as absence of growth; format: functional
Escherichia coli [12] = test: Antimicrobial activity against Escherichia coli W3110 imp4213 expressing pCA24N-fab F204V mutant assessed as absence of growth; format: functional
[13] = target: T1, Enoyl-[acyl-carrier-protein] reductase [NADH] FabI (Escherichia coli K-12, UniProt P0AEK4); test: Inhibition of Escherichia coli FabI using trans-2-[…]-N-acetylcysteamine as substrate by spectrophotometry
T1 sequence (P0AEK4 whole entry): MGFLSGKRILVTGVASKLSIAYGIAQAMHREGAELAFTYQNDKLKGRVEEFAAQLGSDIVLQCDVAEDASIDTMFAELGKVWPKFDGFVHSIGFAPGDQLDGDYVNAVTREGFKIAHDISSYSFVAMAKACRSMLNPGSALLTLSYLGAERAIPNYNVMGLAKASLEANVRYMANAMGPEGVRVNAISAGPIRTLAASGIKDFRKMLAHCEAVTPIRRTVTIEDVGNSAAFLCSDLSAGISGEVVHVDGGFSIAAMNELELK

[14] = compound: NC(=O)C1=CN([C@@H]2O[C@H](COP(=O)(O)OP(=O)(O)OC[C@H]3O[C@@H](n4cnc5c(N)ncnc54)[C@H](O)[C@@H]3O)[C@@H](O)[C@H]2O)C=CC1; test: Inhibition of wild-type Escherichia coli FabI catalytic activity
[15] = compound: NC(=O)C1=CN([C@@H]2O[C@H](COP(=O)(O)OP(=O)(O)OC[C@H]3O[C@@H](n4cnc5c(N)ncnc54)[C@H](O)[C@@H]3O)[C@@H](O)[C@H]2O)C=CC1; test: Inhibition of wild-type Escherichia coli FabI assessed as ratio of Kcat/Km
[16] = compound: NC(=O)C1=CN([C@@H]2O[C@H](COP(=O)(O)OP(=O)(O)OC[C@H]3O[C@@H](n4cnc5c(N)ncnc54)[C@H](O)[C@@H]3O)[C@@H](O)[C@H]2O)C=CC1; test: Inhibition of wild-type Escherichia coli FabI assessed as reduction in Km
[17] = compound: NC(=O)C1=CN([C@@H]2O[C@H](COP(=O)(O)OP(=O)(O)OC[C@H]3O[C@@H](n4cnc5c(N)ncnc54)[C@H](O)[C@@H]3O)[C@@H](O)[C@H]2O)C=CC1; test: Inhibition of Escherichia coli FabI F203V mutant catalytic activity
[18] = compound: NC(=O)C1=CN([C@@H]2O[C@H](COP(=O)(O)OP(=O)(O)OC[C@H]3O[C@@H](n4cnc5c(N)ncnc54)[C@H](O)[C@@H]3O)[C@@H](O)[C@H]2O)C=CC1; test: Inhibition of Escherichia coli FabI F203V mutant assessed as reduction in Km
[19] = compound: NC(=O)C1=CN([C@@H]2O[C@H](COP(=O)(O)OP(=O)(O)OC[C@H]3O[C@@H](n4cnc5c(N)ncnc54)[C@H](O)[C@@H]3O)[C@@H](O)[C@H]2O)C=CC1; test: Inhibition of Escherichia coli FabI F203V mutant assessed as ratio of Kcat/Km
[20] = compound: NC(=O)C1=CN([C@@H]2O[C@H](COP(=O)(O)OP(=O)(O)OC[C@H]3O[C@@H](n4cnc5c(N)ncnc54)[C@H](O)[C@@H]3O)[C@@H](O)[C@H]2O)C=CC1; test: Inhibition of Escherichia coli FabI F203L mutant assessed as ratio of Kcat/Km
[21] = compound: NC(=O)C1=CN([C@@H]2O[C@H](COP(=O)(O)OP(=O)(O)OC[C@H]3O[C@@H](n4cnc5c(N)ncnc54)[C@H](O)[C@@H]3O)[C@@H](O)[C@H]2O)C=CC1; test: Inhibition of Escherichia coli FabI F203L mutant assessed as reduction in Km
[22] = compound: NC(=O)C1=CN([C@@H]2O[C@H](COP(=O)(O)OP(=O)(O)OC[C@H]3O[C@@H](n4cnc5c(N)ncnc54)[C@H](O)[C@@H]3O)[C@@H](O)[C@H]2O)C=CC1; test: Inhibition of Escherichia coli FabI F203L mutant catalytic activity
[23] = compound: NC(=O)C1=CN([C@@H]2O[C@H](COP(=O)(O)OP(=O)(O)OC[C@H]3O[C@@H](n4cnc5c(N)ncnc54)[C@H](O)[C@@H]3O)[C@@H](O)[C@H]2O)C=CC1; test: Inhibition of Escherichia coli FabI Y156V mutant assessed as reduction in Km
[24] = compound: NC(=O)C1=CN([C@@H]2O[C@H](COP(=O)(O)OP(=O)(O)OC[C@H]3O[C@@H](n4cnc5c(N)ncnc54)[C@H](O)[C@@H]3O)[C@@H](O)[C@H]2O)C=CC1; test: Inhibition of Escherichia coli FabI Y156V mutant catalytic activity
[25] = compound: NC(=O)C1=CN([C@@H]2O[C@H](COP(=O)(O)OP(=O)(O)OC[C@H]3O[C@@H](n4cnc5c(N)ncnc54)[C@H](O)[C@@H]3O)[C@@H](O)[C@H]2O)C=CC1; test: Inhibition of Escherichia coli FabI Y156V mutant assessed as ratio of Kcat/Km
[26] = compound: NC(=O)C1=CN([C@@H]2O[C@H](COP(=O)(O)OP(=O)(O)OC[C@H]3O[C@@H](n4cnc5c(N)ncnc54)[C@H](O)[C@@H]3O)[C@@H](O)[C@H]2O)C=CC1; test: Inhibition of Escherichia coli FabI G93V mutant catalytic activity
[27] = compound: NC(=O)C1=CN([C@@H]2O[C@H](COP(=O)(O)OP(=O)(O)OC[C@H]3O[C@@H](n4cnc5c(N)ncnc54)[C@H](O)[C@@H]3O)[C@@H](O)[C@H]2O)C=CC1; test: Inhibition of Escherichia coli FabI G93V mutant assessed as reduction in Km
[28] = compound: NC(=O)C1=CN([C@@H]2O[C@H](COP(=O)(O)OP(=O)(O)OC[C@H]3O[C@@H](n4cnc5c(N)ncnc54)[C@H](O)[C@@H]3O)[C@@H](O)[C@H]2O)C=CC1; test: Inhibition of Escherichia coli FabI G93V mutant assessed as ratio of Kcat/Km
[29] = compound: CC(C)=CCC[C@@H](C)c1ccc(C)c(O)c1; test: Uncompetitive inhibition of Escherichia coli FabI G93V mutant assessed inhibition constant using NADH as substrate by Lineweaver-Burk analysis

Molecule: CC(=O)c1cc2c(=O)c3c(C(=O)O)c(O)c(O)cc3oc2c(C(C)=O)c1-c1coc2cc(O)c(O)c(C(=O)O)c2c1=O [VINAXANTHONE]
- IC50 [1]: 0.9 µM
- MIC (Staphylococcus aureus): 32 µg/mL (≈ 55.5 µM)

Molecule: C=C1C(=O)OCC1C/C=C(\C)CC(=O)C=C(C)C (stereo not given) [ANTHECOTULIDE]
- MIC (Escherichia coli [2]): 25 µg/mL (≈ 101 µM)
- MIC [3]: 20.2 µg/mL (≈ 81.3 µM)

Molecule: Oc1cc(Cl)ccc1Oc1ccc(Cl)cc1Cl [TRICLOSAN]
- MIC (Escherichia coli [4]): 2.05 µg/mL (≈ 7.07 µM)
- MIC (Escherichia coli [5]): 0.512 µg/mL (≈ 1.77 µM)
- Activity (Escherichia coli [6]): 0.4
- MIC (Escherichia coli [7]): > 1.28 µg/mL
- MIC (Escherichia coli [8]): > 2.05 µg/mL
- MIC (Escherichia coli [9]): 0.02 µg/mL (≈ 0.0691 µM)
- MIC (Escherichia coli [10]): 0.02 µg/mL (≈ 0.0691 µM)
- MIC (Escherichia coli [11]): 0.002 µg/mL (≈ 0.00691 µM)
- MIC (Escherichia coli [12]): 2.05 µg/mL (≈ 7.07 µM)

Molecule: O=C(O[C@@H]1Cc2c(O)cc(O)cc2O[C@@H]1c1cc(O)c(O)c(O)c1)c1cc(O)c(O)c(O)c1 [EPIGALOCATECHIN GALLATE]
- IC50 [13]: 5 µM

B1: Enoyl-[acyl-carrier-protein] reductase [NADH] FabI (Escherichia coli K-12), P0AEK4 (protein)
chain: MGFLSGKRILVTGVASKLSIAYGIAQAMHREGAELAFTYQNDKLKGRVEEFAAQLGSDIVLQCDVAEDASIDTMFAELGKVWPKFDGFVHSIGFAPGDQLDGDYVNAVTREGFKIAHDISSYSFVAMAKACRSMLNPGSALLTLSYLGAERAIPNYNVMGLAKASLEANVRYMANAMGPEGVRVNAISAGPIRTLAASGIKDFRKMLAHCEAVTPIRRTVTIEDVGNSAAFLCSDLSAGISGEVVHVDGGFSIAAMNELELK
- kcat [14]: 10.8 s⁻¹
- kcat/Km [15]: 150000 M⁻¹ s⁻¹
- Km [16]: 70.2 µM

B2: Enoyl-[acyl-carrier-protein] reductase [NADH] FabI (Escherichia coli K-12), P0AEK4 F203V (protein)
chain: MGFLSGKRILVTGVASKLSIAYGIAQAMHREGAELAFTYQNDKLKGRVEEFAAQLGSDIVLQCDVAEDASIDTMFAELGKVWPKFDGFVHSIGFAPGDQLDGDYVNAVTREGFKIAHDISSYSFVAMAKACRSMLNPGSALLTLSYLGAERAIPNYNVMGLAKASLEANVRYMANAMGPEGVRVNAISAGPIRTLAASGIKDVRKMLAHCEAVTPIRRTVTIEDVGNSAAFLCSDLSAGISGEVVHVDGGFSIAAMNELELK
- kcat [17]: 0.38 s⁻¹
- Km [18]: 44.2 µM
- kcat/Km [19]: 9000 M⁻¹ s⁻¹

B3: Enoyl-[acyl-carrier-protein] reductase [NADH] FabI (Escherichia coli K-12), P0AEK4 F203L (protein)
chain: MGFLSGKRILVTGVASKLSIAYGIAQAMHREGAELAFTYQNDKLKGRVEEFAAQLGSDIVLQCDVAEDASIDTMFAELGKVWPKFDGFVHSIGFAPGDQLDGDYVNAVTREGFKIAHDISSYSFVAMAKACRSMLNPGSALLTLSYLGAERAIPNYNVMGLAKASLEANVRYMANAMGPEGVRVNAISAGPIRTLAASGIKDLRKMLAHCEAVTPIRRTVTIEDVGNSAAFLCSDLSAGISGEVVHVDGGFSIAAMNELELK
- kcat/Km [20]: 70000 M⁻¹ s⁻¹
- Km [21]: 51.5 µM
- kcat [22]: 3.65 s⁻¹

B4: Enoyl-[acyl-carrier-protein] reductase [NADH] FabI (Escherichia coli K-12), P0AEK4 Y156V (protein)
chain: MGFLSGKRILVTGVASKLSIAYGIAQAMHREGAELAFTYQNDKLKGRVEEFAAQLGSDIVLQCDVAEDASIDTMFAELGKVWPKFDGFVHSIGFAPGDQLDGDYVNAVTREGFKIAHDISSYSFVAMAKACRSMLNPGSALLTLSYLGAERAIPNVNVMGLAKASLEANVRYMANAMGPEGVRVNAISAGPIRTLAASGIKDFRKMLAHCEAVTPIRRTVTIEDVGNSAAFLCSDLSAGISGEVVHVDGGFSIAAMNELELK
- Km [23]: 41.7 µM
- kcat [24]: 0.16 s⁻¹
- kcat/Km [25]: 4000 M⁻¹ s⁻¹

B5: Enoyl-[acyl-carrier-protein] reductase [NADH] FabI (Escherichia coli K-12), P0AEK4 G93V (protein)
chain: MGFLSGKRILVTGVASKLSIAYGIAQAMHREGAELAFTYQNDKLKGRVEEFAAQLGSDIVLQCDVAEDASIDTMFAELGKVWPKFDGFVHSIVFAPGDQLDGDYVNAVTREGFKIAHDISSYSFVAMAKACRSMLNPGSALLTLSYLGAERAIPNYNVMGLAKASLEANVRYMANAMGPEGVRVNAISAGPIRTLAASGIKDFRKMLAHCEAVTPIRRTVTIEDVGNSAAFLCSDLSAGISGEVVHVDGGFSIAAMNELELK
- kcat [26]: 3.44 s⁻¹
- Km [27]: 30.9 µM
- kcat/Km [28]: 110000 M⁻¹ s⁻¹
- Ki [29]: 4.1 µM
